No end group written: not given here. TMR = tetramethyl rhodamine dye
T1: Rb^P H699P (human, UniProt P06400 380-788, H699P)
T1 construct: also called variant 63
T1 sequence (looked up): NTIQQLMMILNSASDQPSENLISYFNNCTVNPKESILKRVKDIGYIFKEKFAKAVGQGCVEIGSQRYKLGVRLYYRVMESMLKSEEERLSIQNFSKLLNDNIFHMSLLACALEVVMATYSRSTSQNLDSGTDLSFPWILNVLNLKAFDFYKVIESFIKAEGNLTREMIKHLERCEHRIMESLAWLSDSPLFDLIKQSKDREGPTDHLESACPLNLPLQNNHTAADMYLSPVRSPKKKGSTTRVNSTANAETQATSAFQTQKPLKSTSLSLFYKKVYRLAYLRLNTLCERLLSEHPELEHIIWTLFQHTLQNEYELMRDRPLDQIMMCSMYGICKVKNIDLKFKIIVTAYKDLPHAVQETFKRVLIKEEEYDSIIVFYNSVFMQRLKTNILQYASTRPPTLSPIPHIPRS

T2: Rb^P S474I (human, UniProt P06400 380-788, S474I)
T2 construct: also called variant 11
T2 sequence (looked up): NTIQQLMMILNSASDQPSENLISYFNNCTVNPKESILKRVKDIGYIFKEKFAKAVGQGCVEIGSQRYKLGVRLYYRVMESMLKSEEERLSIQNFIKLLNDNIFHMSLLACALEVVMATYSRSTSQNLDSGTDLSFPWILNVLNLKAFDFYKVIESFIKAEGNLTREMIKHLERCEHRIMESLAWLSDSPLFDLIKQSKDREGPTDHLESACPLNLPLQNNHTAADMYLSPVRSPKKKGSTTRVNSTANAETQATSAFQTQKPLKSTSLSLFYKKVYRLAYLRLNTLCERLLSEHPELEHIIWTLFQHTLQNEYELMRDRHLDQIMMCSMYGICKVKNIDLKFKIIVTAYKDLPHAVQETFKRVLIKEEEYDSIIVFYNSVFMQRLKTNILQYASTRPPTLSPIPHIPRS

T3: Rb^P S443L (human, UniProt P06400 380-788, S443L)
T3 construct: also called variant 2
T3 sequence (looked up): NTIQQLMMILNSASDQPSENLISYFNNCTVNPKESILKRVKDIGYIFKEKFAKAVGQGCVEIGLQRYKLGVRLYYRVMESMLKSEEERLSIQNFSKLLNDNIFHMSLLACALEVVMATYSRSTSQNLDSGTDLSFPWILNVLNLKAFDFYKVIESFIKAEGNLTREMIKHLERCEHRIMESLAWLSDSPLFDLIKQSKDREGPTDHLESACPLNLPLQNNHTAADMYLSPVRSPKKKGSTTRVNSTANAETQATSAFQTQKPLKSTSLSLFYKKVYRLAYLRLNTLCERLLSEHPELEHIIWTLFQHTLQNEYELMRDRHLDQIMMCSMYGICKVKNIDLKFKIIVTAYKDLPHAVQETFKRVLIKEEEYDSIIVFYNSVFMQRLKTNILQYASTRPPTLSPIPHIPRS

T4: Rb^P T620M (human, UniProt P06400 380-788, T620M)
T4 construct: also called variant 40
T4 sequence (looked up): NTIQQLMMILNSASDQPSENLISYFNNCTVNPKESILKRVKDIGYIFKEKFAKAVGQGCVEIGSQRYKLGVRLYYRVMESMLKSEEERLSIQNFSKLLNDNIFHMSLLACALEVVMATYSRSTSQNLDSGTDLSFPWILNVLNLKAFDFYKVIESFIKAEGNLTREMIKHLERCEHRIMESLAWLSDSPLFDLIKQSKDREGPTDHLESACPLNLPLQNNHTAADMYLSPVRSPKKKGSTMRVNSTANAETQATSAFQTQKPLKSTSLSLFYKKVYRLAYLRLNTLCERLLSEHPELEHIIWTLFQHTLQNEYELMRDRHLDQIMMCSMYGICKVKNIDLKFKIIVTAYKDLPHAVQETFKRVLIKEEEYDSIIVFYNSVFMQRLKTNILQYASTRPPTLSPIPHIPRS

T5: Rb^P R556Q (human, UniProt P06400 380-788, R556Q)
T5 construct: also called variant 30
T5 sequence (looked up): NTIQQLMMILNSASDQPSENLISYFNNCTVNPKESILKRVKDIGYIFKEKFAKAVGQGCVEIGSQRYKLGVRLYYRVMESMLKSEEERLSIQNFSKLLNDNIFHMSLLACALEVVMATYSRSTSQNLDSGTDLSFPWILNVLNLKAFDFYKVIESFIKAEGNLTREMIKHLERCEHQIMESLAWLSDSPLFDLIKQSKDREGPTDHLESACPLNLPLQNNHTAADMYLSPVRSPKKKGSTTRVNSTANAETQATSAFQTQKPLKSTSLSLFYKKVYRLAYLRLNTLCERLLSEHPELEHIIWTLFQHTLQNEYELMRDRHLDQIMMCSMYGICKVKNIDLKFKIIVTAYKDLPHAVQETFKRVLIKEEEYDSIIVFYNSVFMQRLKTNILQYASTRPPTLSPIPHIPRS


What was measured:
Experiment in all cases: fluorescence polarisation; 25 °C; unlabeled Rb^P titrated against 1.5 nM TMR-E2F1^TD or 7.5 nM TMR-E7^LxCxE; 25 mM Tris pH 8.0, 200 mM NaCl, 1 mM DTT, 0.1% Tween-20; 2 min incubation; quadratic fit; apparent Kd for the variants, Kd for WT
Settings in all cases: both partners purified
[1] = biological target: T1, Rb^P H699P
[2] = biological target: T2, Rb^P S474I
[3] = biological target: T3, Rb^P S443L
[4] = biological target: T4, Rb^P T620M
[5] = biological target: T5, Rb^P R556Q

Binder | Kd [1] [nM] | Kd [2] [nM] | Kd [3] [nM] | Kd [4] [nM] | Kd [5] [nM]
{TMR}-GEGIRDLFDCDFGDLTPLD (also called E2F^TD; source: synthetic peptide, bought: GenScript) [TMR-E2F1^TD, peptide of the E2F1 transactivation domain] | 35 | 364 | 31 | 24 | 22
DLYCYEQLN (also: TMR label, position not given here, source: synthetic peptide, bought: GenScript) [TMR-E7^LxCxE, LxCxE peptide of the E7 oncoprotein from HPV] | 6 | 7 | 9 | 6 | 5

— article PMC11931385, “Structural and functional analysis of cancer-associated missense variants in the retinoblastoma protein pocket domain” (The Journal of Biological Chemistry, 2025)
